Assay results taken from the supplement of paper PMC7877785.
± gives the uncertainty stated by the source.

Assay: self-splicing fitness, log relative to wild type (ln ratio); higher = more splicing; Tetrahymena group I intron in knt gene, E. coli kanamycin selection, DiMSum; sequences stand for … in CUCUCU…GGAGGGAAAAGUUAUCAGGCAUGCACCUGGUAGCUAGUCUUUAAACCAAUAGAUUGCAUCGGUUUAAAAGGCAAGACCGUCAAAUUGCGGGAAAGGGGUCAACAGCCGUUCAGUACCAAGUCUCAGGGGAAACUUUGAGAUGGCCUUGCAAAGGGUAUGGUAAUAAGCUGACGGACAUGGUCCUAACCACGCAGCCAAGUCCUAAGUCAACAGAUCUUCUGUUGAUAUGGAUGCAGUUCACAGACUAAAUGUCGGUCGGGGAAGAUGUAUUCUUCUCAUAAGAUAUAGUCGGACCUCUCCUUAAUGGGAGCUAGCGGAUGAAGUGAUGCAACACUGGAGCCGCUGGGAACUAAUUUGUAUGCGAAAGUAUAUUGAUUAGUUUUGGAGUACUCGUGGUCG
Outline: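 Colonies from six replicate transformations of E. coli BL21(DE3) were pooled and amplicon-sequenced on an Illumina HiSeq 2500. The library placed an intron with all eight P1ex-region nucleotides randomised inside the knt kanamycin-resistance gene on pET-22b(+), and cells grew overnight at 37°C or 30°C on LB agar with or without 25 μg/mL kanamycin (plus 100 μg/mL carbenicillin, 50 μM IPTG, 0.2% rhamnose). Fitness is the DiMSum error-weighted combination of wild-type-normalised replicate fold changes, kanamycin versus none.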

Sequence	self-splicing fitness (ln) (30 °C)	self-splicing fitness (ln) (37 °C)
GUGAAGCAAUAUUACGGGUA	-0.994 ± 0.068	-1.23 ± 0.1
GUGAAGCAAUAUUACGGGUG	-1.39 ± 0.075	-0.589 ± 0.11
GUGAAGCAAUAUUACGGUCC	-0.351 ± 0.15	-0.0265 ± 0.18
GUGAAGCAAUAUUACGUCCC	-1.28 ± 0.35	-0.367 ± 0.2
GUGAAGCAAUAUUACGUUAA	-2.09 ± 0.12	-1.74 ± 0.14
GUGCAGCAAUAUUACGAACC	-1.94 ± 0.3	0.395 ± 0.48
GUGCAGCAAUAUUACGAGAA	–	-2.25 ± 0.3
GUGCAGCAAUAUUACGAGGG	-2.79 ± 0.21	-1.87 ± 0.27
GUGCAGCAAUAUUACGAUGU	-0.56 ± 0.067	-0.37 ± 0.073
GUGCAGCAAUAUUACGAUUC	0.476 ± 0.074	-0.403 ± 0.073
GUGCAGCAAUAUUACGCACA	-3.26 ± 0.18	-1.67 ± 0.12
GUGCAGCAAUAUUACGCAUU	–	-2.38 ± 0.2
GUGCAGCAAUAUUACGCCUA	-1.29 ± 0.24	0.608 ± 0.25
GUGCAGCAAUAUUACGGAUG	-2.72 ± 0.29	-1.74 ± 0.25
GUGCAGCAAUAUUACGGAUU	-1.66 ± 0.12	-0.37 ± 0.11
GUGCAGCAAUAUUACGGCAC	-0.83 ± 0.2	-1.46 ± 0.24
GUGCAGCAAUAUUACGGCAU	-2.93 ± 0.2	-1.64 ± 0.18
GUGCAGCAAUAUUACGGCCA	-0.211 ± 0.11	-0.818 ± 0.14
GUGCAGCAAUAUUACGGCGC	-2.72 ± 0.17	-2.41 ± 0.32
GUGCAGCAAUAUUACGGCUG	-4.5 ± 0.34	-2.36 ± 0.28
GUGCAGCAAUAUUACGGGAG	-2.01 ± 0.12	-1.44 ± 0.13
GUGCAGCAAUAUUACGGGGC	-1.75 ± 0.15	-2.63 ± 0.27
GUGCAGCAAUAUUACGGGUU	-3.37 ± 0.13	-0.752 ± 0.095
GUGCAGCAAUAUUACGGUCG	-1.29 ± 0.053	-0.792 ± 0.075
GUGCAGCAAUAUUACGUAUG	-1.86 ± 0.13	-1.1 ± 0.13

Sequence	self-splicing fitness (ln) (30 °C)	self-splicing fitness (ln) (37 °C)
GUGCAGCAAUAUUACGUCAG	-3.02 ± 0.13	-1.83 ± 0.11
GUGCAGCAAUAUUACGUCCC	-0.912 ± 0.35	-0.124 ± 0.26
GUGCAGCAAUAUUACGUCGC	-1.5 ± 0.28	-0.148 ± 0.22
GUGCAGCAAUAUUACGUGAU	-1.98 ± 0.078	-0.862 ± 0.086
GUGCAGCAAUAUUACGUUUG	-1.76 ± 0.17	-2.63 ± 0.27
GUGGAGCAAUAUUACGAAAA	-2.27 ± 0.43	–
GUGGAGCAAUAUUACGAUGA	-1.37 ± 0.19	-1.39 ± 0.37
GUGGAGCAAUAUUACGCCGG	-2.57 ± 0.46	–
GUGGAGCAAUAUUACGCGAC	-2.22 ± 0.48	–
GUGGAGCAAUAUUACGCGUG	-2.88 ± 0.37	-1.77 ± 0.3
GUGGAGCAAUAUUACGCUUA	-1.86 ± 0.14	-1.04 ± 0.22
GUGGAGCAAUAUUACGCUUC	-3.26 ± 0.2	-3.69 ± 0.42
GUGGAGCAAUAUUACGGGGG	-3.36 ± 0.44	–
GUGGAGCAAUAUUACGGUAA	-2.05 ± 0.11	-2.95 ± 0.19
GUGGAGCAAUAUUACGGUAG	-1.7 ± 0.16	-1.41 ± 0.31
GUGGAGCAAUAUUACGUAUA	-2.7 ± 0.2	–
GUGGAGCAAUAUUACGUCUA	-3.74 ± 0.47	–
GUGGAGCAAUAUUACGUGCA	-2.14 ± 0.17	-1.17 ± 0.16
GUGGAGCAAUAUUACGUUAU	-3.23 ± 0.26	-0.612 ± 0.14
GUGGAGCAAUAUUACGUUGU	-2.93 ± 0.12	-2.53 ± 0.21
GUGUAGCAAUAUUACGAAAU	-1.47 ± 0.1	-1.1 ± 0.14
GUGUAGCAAUAUUACGACCA	-1.47 ± 0.28	-0.121 ± 0.43
GUGUAGCAAUAUUACGACGU	0.117 ± 0.095	0.9 ± 0.12
GUGUAGCAAUAUUACGAGAG	–	-1.52 ± 0.47
GUGUAGCAAUAUUACGCACG	-3.57 ± 0.27	-2.25 ± 0.22

Sequence	self-splicing fitness (ln) (30 °C)	self-splicing fitness (ln) (37 °C)
GUGUAGCAAUAUUACGCAUC	–	-0.977 ± 0.26
GUGUAGCAAUAUUACGCGAG	-3.67 ± 0.32	-0.997 ± 0.17
GUGUAGCAAUAUUACGCGGG	-3.73 ± 0.2	-2.75 ± 0.2
GUGUAGCAAUAUUACGGAAG	-1.96 ± 0.19	-0.206 ± 0.19
GUGUAGCAAUAUUACGGCCA	0.628 ± 0.35	-0.349 ± 0.44
GUGUAGCAAUAUUACGGCGG	-2.81 ± 0.23	-1.6 ± 0.19
GUGUAGCAAUAUUACGGGUC	-2.47 ± 0.2	-2.49 ± 0.28
GUGUAGCAAUAUUACGGGUU	-2.77 ± 0.21	-1.22 ± 0.17
GUGUAGCAAUAUUACGGUAG	–	-1.58 ± 0.23
GUGUAGCAAUAUUACGGUUA	-0.588 ± 0.14	-0.936 ± 0.17
GUGUAGCAAUAUUACGGUUG	-2.88 ± 0.14	-2.61 ± 0.16
GUGUAGCAAUAUUACGUAUU	-1.25 ± 0.12	-2.82 ± 0.22
GUGUAGCAAUAUUACGUGAU	-1.59 ± 0.17	0.0886 ± 0.19
GUGUAGCAAUAUUACGUUUG	-2.54 ± 0.27	-1.44 ± 0.28
GUUAAGCAAUAUUACGAAAG	-1.91 ± 0.14	-1.5 ± 0.22
GUUAAGCAAUAUUACGAACG	-2.01 ± 0.28	-1.16 ± 0.31
GUUAAGCAAUAUUACGAACU	-2.35 ± 0.2	-0.527 ± 0.2
GUUAAGCAAUAUUACGAAUU	-1.72 ± 0.21	-1.4 ± 0.24
GUUAAGCAAUAUUACGAGUU	-1.36 ± 0.11	-0.688 ± 0.14
GUUAAGCAAUAUUACGAUAC	-1.34 ± 0.21	-0.951 ± 0.28
GUUAAGCAAUAUUACGAUGA	-1.33 ± 0.17	0.18 ± 0.11
GUUAAGCAAUAUUACGAUGC	-0.546 ± 0.18	-0.241 ± 0.18
GUUAAGCAAUAUUACGCGCG	-0.983 ± 0.09	0.0623 ± 0.14
GUUAAGCAAUAUUACGCUCG	-0.539 ± 0.13	0.0474 ± 0.16
GUUAAGCAAUAUUACGGCGU	-0.0268 ± 0.076	-0.00868 ± 0.094

Sequence	self-splicing fitness (ln) (30 °C)	self-splicing fitness (ln) (37 °C)
GUUAAGCAAUAUUACGGGGA	-3.04 ± 0.37	-2.15 ± 0.47
GUUAAGCAAUAUUACGUCCG	-1.77 ± 0.17	-0.533 ± 0.23
GUUAAGCAAUAUUACGUUUU	-3.11 ± 0.15	-1.7 ± 0.16
GUUCAGCAAUAUUACGAACA	-2.43 ± 0.26	-1.45 ± 0.22
GUUCAGCAAUAUUACGAAGC	-0.705 ± 0.18	-1.29 ± 0.2
GUUCAGCAAUAUUACGAAUC	-3.73 ± 0.24	-2.29 ± 0.33
GUUCAGCAAUAUUACGACAA	-1.06 ± 0.18	-0.319 ± 0.18
GUUCAGCAAUAUUACGACAG	-3.33 ± 0.35	-1.76 ± 0.42
GUUCAGCAAUAUUACGACCG	-3.83 ± 0.18	-1.93 ± 0.23
GUUCAGCAAUAUUACGACGG	-4.42 ± 0.24	-3.24 ± 0.37
GUUCAGCAAUAUUACGAGAA	-1.81 ± 0.49	-2.14 ± 0.31
GUUCAGCAAUAUUACGAGGU	-2.25 ± 0.12	-0.472 ± 0.13
GUUCAGCAAUAUUACGAGUG	-1.59 ± 0.18	-0.332 ± 0.14
GUUCAGCAAUAUUACGAUAU	-0.361 ± 0.086	0.524 ± 0.097
GUUCAGCAAUAUUACGCAAU	-1.08 ± 0.16	-0.106 ± 0.19
GUUCAGCAAUAUUACGCACC	-1.33 ± 0.13	-0.136 ± 0.21
GUUCAGCAAUAUUACGCUCC	-0.282 ± 0.15	-0.544 ± 0.23
GUUCAGCAAUAUUACGCUUG	-1.54 ± 0.081	-0.171 ± 0.089
GUUCAGCAAUAUUACGGAAU	-2.45 ± 0.19	-2.46 ± 0.27
GUUCAGCAAUAUUACGGACA	-1.59 ± 0.18	-1.02 ± 0.16
GUUCAGCAAUAUUACGGCUU	-0.546 ± 0.086	0.571 ± 0.12
GUUCAGCAAUAUUACGGGAG	-0.317 ± 0.077	-0.683 ± 0.095
GUUCAGCAAUAUUACGGGCU	–	-1.56 ± 0.28
GUUCAGCAAUAUUACGGGGU	-3.36 ± 0.17	-1.73 ± 0.16
